Results from patent publication US20200095340A1.

target: human DLL3 on DMS-153 cells (human) (UniProt Q9NYJ7); experiment: cell-based or functional assay
Sequence (Q9NYJ7 27-618 limits assumed): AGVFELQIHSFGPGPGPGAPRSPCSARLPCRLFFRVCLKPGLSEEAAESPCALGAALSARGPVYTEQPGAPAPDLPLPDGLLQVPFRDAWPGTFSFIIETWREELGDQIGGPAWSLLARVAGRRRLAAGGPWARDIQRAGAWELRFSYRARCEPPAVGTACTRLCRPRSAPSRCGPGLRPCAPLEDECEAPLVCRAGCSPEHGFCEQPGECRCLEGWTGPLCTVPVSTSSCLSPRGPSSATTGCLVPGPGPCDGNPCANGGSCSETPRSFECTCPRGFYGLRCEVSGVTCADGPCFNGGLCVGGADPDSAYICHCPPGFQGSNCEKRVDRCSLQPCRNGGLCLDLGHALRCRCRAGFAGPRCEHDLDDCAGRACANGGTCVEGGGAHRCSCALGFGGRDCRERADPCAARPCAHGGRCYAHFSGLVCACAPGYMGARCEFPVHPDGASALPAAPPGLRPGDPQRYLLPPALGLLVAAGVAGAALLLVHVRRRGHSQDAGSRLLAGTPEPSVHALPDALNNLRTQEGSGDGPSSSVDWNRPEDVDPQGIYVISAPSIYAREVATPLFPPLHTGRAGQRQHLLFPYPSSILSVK

Binder	DMS-153 TDCC EC50 (conditioned medium, human T cells) [nM]	TDCC EC50 (CHO expressed, purified protein; method of Example 2, DMS-153 cells) [nM]
anti-DLL3 trispecific protein, DLL3 binder 2E010 (protein, part only; not given: anti-CD3 and anti-albumin domains, part only) chain, part: EVQLVESGGGLVQPGGSLTLSCVASGSTSSINAMAWYRRAPGKQRELVAGISSDGSKVYADSVKGRFTISRDNAKNSVYLQMNSLRAEDTAVYYCYYFHTVSGSSMRYWGQGTLVTVSSGGGGSGGGSGGGGSGGGSHHHHHH	0.031	
anti-DLL3 trispecific protein, DLL3 binder 2F11 (protein, part only; not given: anti-CD3 and anti-albumin domains, part only) chain, part: EVQLVESGGGLVQPGGSLTLSCVASGSVSSINAMGWYRRAPGKQRELVAGISSDGSKVYKDSVKGRFTISRDNAKNSVYLQMNSLRAEDTAVYYCYYFRTVSGSSMGYWGQGTLVTVSSGGGGSGGGSGGGGSGGGSHHHHHH	0.049	
anti-DLL3 trispecific protein, DLL3 binder 2E01 (protein, part only; not given: anti-CD3 and anti-albumin domains, part only) chain, part: EVQLVESGGGLVQPGGSLTLSCVASGSTSSINAMGWYRRAPFKQGELPAGISPDGTKAYADSAKVRFTISRDNAKNSVYLQMNSLRAEDTAVYYCYYFHTVCGTSMGYWGQGTLVTVSSGGGGSGGGSGGGGSGGGSHHHHHH	0.033	

More lines, now with the values ahead:

DMS-153 TDCC EC50 (conditioned medium, human T cells) [nM]	TDCC EC50 (CHO expressed, purified protein; method of Example 2, DMS-153 cells) [nM]	Binder
	0.098	anti-DLL3 trispecific protein, DLL3 binder 4D011 (protein, part only; not given: CD3 binder and albumin binder, part only) chain, part: EVQLVESGGGLVQPGGSLTLSCAASGSSVRFLSMAWYRQAPGKKRELVAGISVDGSTDYIDSVKGRFTISRDNAKNSVYLQMNSLRAEDTAVYYCYAYRWRTRYTYWGQGTLVTVSSGGGGSGGGSGGGGSGGGSHHHHHH
	0.13	anti-DLL3 trispecific protein, DLL3 binder 4H11-M34L (protein, part only; not given: anti-CD3 and anti-albumin domains, part only) chain, part: EVQLVESGGGLVQPGGSLTLSCAASGSSVSRLSLAWYRQAPGKKRELVAGISVDGSTDYIDSVKGRFTISRDNAKNSVYLQMNSLRAEDTAVYYCYAYRWTTRLTYWGQGTLVTVSSGGGGSGGGSGGGGSGGGSHHHHHH
0.048		anti-DLL3 trispecific protein, DLL3 binder 4B011 (protein, part only; not given: CD3 binder and albumin binder, part only) chain, part: EVQLVESGGGLVQPGGSLTLSCAASGSSVTFLSMAWYRQAPGKKRELVAGISADGSTVYIDSVKGRFTISRDNAKNSVYLQMNSLRAEDTAVYYCYAYRWTTRGTYWGQGTLVTVSSGGGGSGGGSGGGGSGGGSHHHHHH
0.041		anti-DLL3 trispecific protein, DLL3 binder 4E02 (protein, part only; not given: anti-CD3 and anti-albumin domains, part only) chain, part: EVQLVESGGGLVQPGGSLTLSCAASGSQVSFLSMAWYRQAPGKKRELVAGISADGSTVYIDSVKGRFTISRDNAKNSVYLQMNSLRAEDTAVYYCYAYRWSTRYTYWGQGTLVTVSSGGGGSGGGSGGGGSGGGSHHHHHH

target: biotinylated human DLL3 protein expressed as a human IgG1 fusion protein (human) (UniProt Q9NYJ7); experiment: Octet, biotinylated human DLL3-IgG1 fusion on streptavidin tips, single 50 nM, conditioned medium (relative KD)
Sequence (Q9NYJ7 27-492): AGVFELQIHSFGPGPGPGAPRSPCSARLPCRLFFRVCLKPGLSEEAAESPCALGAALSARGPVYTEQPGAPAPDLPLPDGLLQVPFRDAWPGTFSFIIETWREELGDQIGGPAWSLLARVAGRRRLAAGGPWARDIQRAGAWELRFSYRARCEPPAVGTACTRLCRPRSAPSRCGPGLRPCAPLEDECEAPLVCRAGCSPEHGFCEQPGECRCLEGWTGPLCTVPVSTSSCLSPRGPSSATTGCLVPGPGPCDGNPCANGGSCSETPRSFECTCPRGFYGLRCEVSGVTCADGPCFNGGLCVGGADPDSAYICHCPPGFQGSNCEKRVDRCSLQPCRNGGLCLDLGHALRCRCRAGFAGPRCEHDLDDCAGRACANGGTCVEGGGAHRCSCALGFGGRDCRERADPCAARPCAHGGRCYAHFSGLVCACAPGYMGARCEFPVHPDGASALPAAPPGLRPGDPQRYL

Binder	Kd [nM]
anti-DLL3 trispecific protein, DLL3 binder 1F08 (protein, part only; not given: anti-CD3 fragment and anti-albumin sdAb, part only) chain, part: EVQLVESGGGLVQPGGSLTLSCVASGSTSSINAMAWYRRAPGKQRELVAGISSDGSKVYKDSVKGRFTISRDNAKNSVYLQMNSLRAEDTAVYYCYYFRNVSGSSMRYWGQGTLVTVSSGGGGSGGGSGGGGSGGGSHHHHHH	31
anti-DLL3 trispecific protein, DLL3 binder 1G06 (protein, part only; not given: anti-CD3 fragment and anti-albumin sdAb, part only) chain, part: EVQLVESGGGLVQPGGSLTLSCVASGSTSSINAIGWYRRAPGKQRELVAGISSDGSKVYAVSVKGRFTISRDNAKNSVYLQMNSLRAEDTAVYYCYYFRKVSGSSARYWGQGTLVTVSSGGGGSGGGSGGGGSGGGSHHHHHH	26
anti-DLL3 trispecific protein, DLL3 binder 1C08 (protein, part only; not given: CD3 fragment and albumin sdAb, part only) chain, part: EVQLVESGGGLVQPGGSLTLSCVASGSTSRINAMGWYRRAPGKQRELPAGISSDGSKVYAVSVKGRFTISRDNAKNSVYLQMNSLRAEDTAVYYCYYFRTVSGSPMRYWGQGTLVTVSSGGGGSGGGSGGGGSGGGSHHHHHH	25
anti-DLL3 trispecific protein, DLL3 binder 2F08 (protein, part only; not given: anti-CD3 fragment and anti-albumin domain, part only) chain, part: EVQLVESGGGLVQPGGSLTLSCVASGSKSSINAMGWYRRAPGKQRELPAGISSNGTKVYADSAKVRFTISRDNAKNSVYLQMNSLRAEDTAVYYCYYFRTVLGTSMRYWGQGTLVTVSSGGGGSGGGSGGGGSGGGSHHHHHH	20
anti-DLL3 trispecific protein, DLL3 binder 1F09 (protein, part only; not given: CD3 binder and albumin binder, part only) chain, part: EVQLVESGGGLVQPGGSLTLSCVASGNTSSINAMGWYRRAPGKQRELVAGISSNGSKVYADSVKGRFTISRDNAKNSVYLQMNSLRAEDTAVYYCYYFRTVTGSSMRYWGQGTLVTVSSGGGGSGGGSGGGGSGGGSHHHHHH	35
anti-DLL3 trispecific protein, DLL3 binder 3B09 (protein, part only; not given: CD3 binder and albumin binder, part only) chain, part: EVQLVESGGGLVQPGGSLTLSCAASGSHVSFLSMAWYRQAPGKKRELVAGISANGSTDYIDSVKGRFTISRDNAKNSVYLQMNSLRAEDTAVYYCYAYRWTTRYAYWGQGTLVTVSSGGGGSGGGSGGGGSGGGSHHHHHH	20
anti-DLL3 trispecific protein, DLL3 binder 3D09 (protein, part only; not given: anti-CD3 fragment and anti-albumin domain, part only) chain, part: EVQLVESGGGLVQPGGSLTLSCAASGSSVSRLSMAWYRQAPGKKRELVAGISANGSTTYIDSVKGRFTISRDNAKNSVYLQMNSLRAEDTAVYYCYAYRWTTRYRYWGQGTLVTVSSGGGGSGGGSGGGGSGGGSHHHHHH	32
anti-DLL3 trispecific protein, DLL3 binder 4A04 (protein, part only; not given: CD3 binder and albumin binder, part only) chain, part: EVQLVESGGGLVQPGGSLTLSCAASGSRVSFLSMAWYRQAPGKKRELVAGISARGSTDYIDSVKGRFTISRDNAKNSVYLQMNSLRAEDTAVYYCYAYRWSTRYTYWGQGTLVTVSSGGGGSGGGSGGGGSGGGSHHHHHH	35
anti-DLL3 trispecific protein, DLL3 binder 3B04 (protein, part only; not given: CD3 binder and albumin binder, part only) chain, part: EVQLVESGGGLVQPGGSLTLSCAASGSNVSFLSMAWYRQAPGKKRELVAGISARGSTDYIDSVKGRFTISRDNAKNSVYLQMNSLRAEDTAVYYCYAYHWTTRYTYWGQGTLVTVSSGGGGSGGGSGGGGSGGGSHHHHHH	24
anti-DLL3 trispecific protein, DLL3 binder 4A08 (protein, part only; not given: CD3 binder and albumin binder, part only) chain, part: EVQLVESGGGLVQPGGSLTLSCAASGSSVSFLSMAWYRQAPGKKRELVAGISADGSTNYIDSVKGRFTISRDNAKNSVYLQMNSLRAEDTAVYYCYAYRWRTRYTYWGQGTLVTVSSGGGGSGGGSGGGGSGGGSHHHHHH	24

Continued, values first:

Kd [nM]	Binder
64	anti-DLL3 trispecific protein, DLL3 binder 4H05 (protein, part only; not given: anti-CD3 fragment and anti-albumin sdAb, part only) chain, part: EVQLVESGGGLVQPGGSLTLSCAASGSSVSRLSMAWYRQAPGKKRELVAGISARGSTDYIDSVKGRFTISRDNAKNSVYLQMNSLRAEDTAVYYCYAYRWTTRSTYWGQGTLVTVSSGGGGSGGGSGGGGSGGGSHHHHHH
20	anti-DLL3 trispecific protein, DLL3 binder 4G03 (protein, part only; not given: CD3 binder and albumin binder, part only) chain, part: EVQLVESGGGLVQPGGSLTLSCAASGSSVKFLSMAWYRQAPGKKRELVAGISADGSTDYIHSVKGRFTISRDNAKNSVYLQMNSLRAEDTAVYYCYAYRWTRRYTYWGQGTLVTVSSGGGGSGGGSGGGGSGGGSHHHHHH
21	anti-DLL3 trispecific protein, DLL3 binder 4H01 (protein, part only; not given: CD3 binder and albumin binder, part only) chain, part: EVQLVESGGGLVQPGGSLTLSCAASGSSVSFLSMAWYRQAPGKKRELVAGISANGSTDYYDSVKGRFTISRDNAKNSVYLQMNSLRAEDTAVYYCYAYRWRTRYTYWGQGTLVTVSSGGGGSGGGSGGGGSGGGSHHHHHH
30	anti-DLL3 trispecific protein, DLL3 binder 4D02 (protein, part only; not given: CD3 fragment and albumin sdAb, part only) chain, part: EVQLVESGGGLVQPGGSLTLSCAASGSKVSFLSMAWYRQAPGKKRELVAGISARGSTDYIDSVKGRFTISRDNAKNSVYLQMNSLRAEDTAVYYCYAYQWTTRYTYWGQGTLVTVSSGGGGSGGGSGGGGSGGGSHHHHHH
26	anti-DLL3 trispecific protein, DLL3 binder 4D03 (protein, part only; not given: anti-CD3 fragment and anti-albumin domain, part only) chain, part: EVQLVESGGGLVQPGGSLTLSCAASGSSVRFLSMAWYRQAPGKKRELVAGISATGSTDYIDSVKGRFTISRDNAKNSVYLQMNSLRAEDTAVYYCYAYRWTRRYTYWGQGTLVTVSSGGGGSGGGSGGGGSGGGSHHHHHH
